This assay addresses T1, recombinant Psb28 (from pIVEXPsb28His) (T. elongatus, UniProt Q8DLJ8 2-116).
T1 sequence: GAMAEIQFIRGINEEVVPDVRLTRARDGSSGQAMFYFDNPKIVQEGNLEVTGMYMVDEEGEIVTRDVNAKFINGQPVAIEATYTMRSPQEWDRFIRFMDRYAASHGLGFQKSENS
The experiment in a line: NMR titration.

Where no end group is shown, it is not given here.

For the molecule Ac-SGIDPELSPEQVEWGFYQKV [carboxy-terminal peptide from residues 480-499 of CP47], the dissociation constant (Kd) is 53.92 ± 0.41 µM and the off-rate constant (koff) is 10.1 ± 0.16 s⁻¹.

(Values after doi:10.1101/2020.09.14.294884 (bioRxiv, 2020).)
